Assays:
male Sprague-Dawley rats = assay: Fraction of reticulocytes in rats given EPO (Example 11); type: in vivo, rat; details: day 5, Acridine Orange, flow cytometry
Description: The controlled delivery of active human erythropoeitin (EPO) was confirmed in male Sprague-Dawley rats purchased from Taconic Labs (Germantown, N.Y.). Hydrogel devices were manufactured to contain 3000 Units per device, as described in Example 14. These devices were prepared in the absence of vinyl pyrrolidone, and other polymerizable monovinyl monomers. One of these devices was implanted in each of 3 rats. Three other rats received a subcutaneous injection of EPO (1000 Units) daily for 3 days. A control group of 3 rats received no treatment.
On day 5 after implantation of the device or the start of the subcutaneous injections, venous blood samples were obtained from each rat and stored in EDTA. The fraction of reticulocytes (immature red blood cells) was determined after staining with Acridine Orange by automated flow cytometry.

[1] = In vitro release of EPO from 3.4KL5 discs, size exclusion chromatography (Example 14); type: physicochemical
Description: To a sterile 20 mL vial were added: 0.0330 g of TEOA (neat), 1.0076 g of 3.4KL5, 0.0598 g of 1000 ppm eosin (in PBS, pH 7.0), and 2.32 g solution of EPO (10,000 units/mL). No vinyl pyrrolidone, or other polymerizable monovinyl monomer was added. The resulting mixture was mixed and polymerized by light (ILC Technology, Inc. Xenon Light Source with Fiber Optics).
The rate of in vitro release was conducted by averaging the release from 3 discs containing an average of 2500 units per disc. The release was conducted in 4 mL of PBS (pH 7.4) at 39° C. The release media was exchanged daily. Analysis was done by size exclusion chromatography. (HPLC: model 2690 by waters, Column: SEC 250 by BioRad, mobile phase: 0.8M TFA in 60% acetonitrile @1.5 mL/min, detector wavelength: 220 nm).

[2] = In vitro short term release of insulin from 3.4KL5, SEC-HPLC (Example 6); type: physicochemical; details: Zn-Insulin 47% loading in 3.4KL5
Description: Device Preparation: A degradable macromer (3.4KL5) was used. […] The protein was loaded at a loading of 47%, based on dry weight. Three samples were prepared.
The samples were prepared as described in Example 4. The samples were analyzed by SEC-HPLC for the detection of monomers, dimers and soluble aggregates, using the conditions described in Example 5.

[3] = In vitro release of insulin from 3.4KL5 particles, size exclusion chromatography (Example 15); type: physicochemical
Description: No vinyl pyrrolidone, or other polymerizable monovinyl monomer was added. The resulting mixture was mixed and placed into 10 mL glass tubes. The tubes were exposed to xenon light (ILC Technology, Inc. Xenon Light Source with Fiber Optics) for 10 seconds. The semi-cured hydrogel was pushed out of the glass tube and further polymerized for 3.5 minutes. The cured hydrogel rods were placed in 15 mL of heptane and ground using a homogenizer (Silverson L4RT-A) for 30 seconds @5000 rpm, followed by 30 seconds @3000 rpm. The heptane was decanted, and the powder was dried under nitrogen.
Particles (16 mg) were placed in a porous (0.8 mm) “release-bag” (described in Example 5). The in vitro release was calculated by averaging the release from 2 release bags. The release-bag was placed into 2 mL of PBS (pH 7.4) at 39° C. The release media was exchanged every 15 minutes for the first 2 hours and every 30 minutes thereafter. Analysis was done by size exclusion chromatography. (HPLC: model 2690 by waters, Column: SEC 250 by BioRad, mobile phase: 0.8M TFA in 60% acetonitrile @1.5 mL/min, detector wavelength: 220 nm).

hypophysectomized rats [4] = assay: Growth of hypophysectomized rats given hGH (Example 13); type: in vivo, rat; details: hypophysectomized female rats; initial results
Excerpt: The controlled delivery of active human growth hormone (hGH, MW 20 Kd) was confirmed in the hypophysectomized rat model. Hypophysectomized female rats purchased from Taconic Labs (Germantown, N.Y.) were weighed each morning. Prior to the initiation of the study the rats were held 7 days to confirm lack of growth. The rats were divided into 3 groups of equal mean weights. Group 1 remained untreated and served as a negative control. Group 2 received an implant of hGH in a hydrogel made of a 3:1 blend of 3.4KL5 and 3.4KC6 (each device contained approximately 1 mg of hGH). The rats in Group 3 were injected with 100 μg hGH subcutaneously each day for the duration of the study.

hypophysectomized rats [5] = assay: Growth of hypophysectomized rats given bST (Example 9); type: in vivo, rat; details: hypophysectomized female rats, 118±1.5 grams on day 1; mean±sem
Excerpt: The controlled delivery of active bovine somatotropin (MW 20 Kd) was confirmed in the hypophysectomized rat model. Hypophysectomized female rats were purchased from Taconic Labs (Germantown, N.Y.). The rats were weighed each morning. Prior to the initiation of the study, the rats were held 7 days to confirm lack of growth. On day 1 of the study the rats weighed 118±1.5 grams (mean±sem, n=18). The rats were divided into 3 groups of equal mean weights. Group 1 remained untreated and served as a negative control. Group 2 received an implant of bST in a hydrogel made of a blend of 3:1 of 3.4KL5 and PEGDA (each device contained 0.9 to 1.1 mg of bST). The rats in Group 3 were injected with 100 μg bST subcutaneously each day for the duration of the study.

[6] = Release of bST from cylindrical hydrogel devices of large and small diameter, HPLC (Example 10); type: physicochemical
Description: A macromer mixture containing approximately 30% (w/w) of bST was prepared using the methods described above. The macromer/protein mixture was put in a glass cylinder having an internal diameter of either 1.12 mm or 0.61 mm. The system was exposed to light for 20 seconds, removed from the glass cylinder, placed on aluminum foil, and exposed to light for an additional 3.5 minutes. The resulting hydrogel cylinders were placed in 1 mL of release media (PBS, pH 7.4), and the released bST was monitored by HPLC. […] In addition, the characteristics of the bST release indicated degradation/swelling of a controlled system. […] For n=0.5, the drug release follows a Fickian-diffusion mechanism. For n>0.5, non-Fickian behavior was observed.
In a different analysis based only on diffusion, the flux from the cylinder was analyzed using the following Fickian equation: J=D*A*ΔC/ΔX, where J is the flux; D is the diffusion constant; A is the surface area; C is the concentration in the cylinder; and […] from the center. In this analysis the flux should differ dramatically whether the release occurred from either a large or a small diameter cylinder. Theoretical analysis predicted that under Fickian diffusion, when the smaller diameter cylinder released 20%, the larger diameter cylinder would release 7% of the incorporated drug. […]

[7] = In vitro release of bST from 3.4KL5/PEG-diacrylate blend discs, SEC-HPLC (Example 5); type: physicochemical
Description: Device Preparation: A blend of a degradable macromer (3.4KL5) and a non-degradable macromer (PEG-diacrylate, MW 3,400) was used. The protein used was ZnbST (Monsanto/Protiva). The protein was loaded at a loading of 20%, based on dry weight. 3 samples were prepared, as follows.
Sample preparation: 20 μL of the bST-precursor solution were prepared, as described in Example 1. The mixture was pipetted using a positive displacement pipette with a silanized glass tip. The solution was placed onto a silanized glass slide. Using pieces of plastic sheets with thicknesses of about 0.4±0.2 mm as spacers, another silanized glass slide was placed on top and held firmly in place using binder clips. A light source (ILC Technology, Inc. Xenon Light Source with Fiber Optics) was adjusted to about a 5-cm distance from the glass slide using clamps and a stand. The center of the disc was illuminated; both sides of the disc were illuminated, for two minutes each.
The clips, the glass slide, and the spacers were carefully removed. With a spatula and tweezers, the discs were removed and weighed on a clean, tared silanized glass slide. The disc was placed into a heat-sealed membrane bag, as described in more detail below. One 20 μL disc was placed in each bag. The bag was heat-sealed, placed in 2.0 mL of phosphate buffer release media (0.01% NaN3, 0.05M PBS, pH 7.4), placed on an orbital shaker turning at 100 rpm, and incubated at 39° C.
For each time point, the bag was placed into fresh 2.0 mL of PBS Release Media. Samples were collected for analysis every day for as long as the bST was being released.
Membrane bags were prepared as follows. Membrane sheets were cut into pieces of approximately 7×2.5 cm. The sheets were folded in half. Using a Bunsen burner or a propane torch, a spatula was heated until it became red. The edges of the sheets were aligned, and the side of the membrane was cut with the […] to seal the sides. […]
The samples were analyzed daily by SEC-HPLC. Monomers, dimers, and soluble aggregates could be detected using this method. […]

[8] = In vitro release of ZnbST from 75:25 blend of 3.4KL5 and 3.4KC6, SEC-HPLC (Example 8); type: physicochemical
Description: Devices were prepared as describe above. A blend of a soluble macromer (3.4KL5) and an insoluble macromer (3.4KC6) were used, in a ratio of 75:25. The protein ZnbST (Protiva/Monsanto) was loaded at a loading of 25%, based on dry weight. Six samples were prepared. The samples were analyzed by SEC-HPLC to detect monomers, dimers, and soluble aggregates, as described above.

[9] = In vitro release of ZnbST from 50:50 blend of 3.4KL5 and 3.4KC6, SEC-HPLC (Example 7); type: physicochemical; details: 25% loading in 50:50 blend of 3.4KL5 and 3.4KC6
Description: Devices were prepared as describe above. Macromers containing a blend of a soluble macromer (3.4KL5) and an insoluble macromer (3.4KC6) were used in a ratio of 50:50. The protein used was ZnbST (Protiva/Monsanto); it was loaded at a loading of 25%, based on dry weight. Six samples were prepared. The samples were analyzed by SEC-HPLC, as described above. The samples were monitored for the presence of monomers, dimers and soluble aggregates.

Molecule: EPO: human erythropoeitin
- reticulocytes (male Sprague-Dawley rats): about 19%
- EPO still being released ([1]; after 120 hours): over 500 units
- period over which EPO was released ([1]; average 2500 units per disc, PBS pH 7.4, 39° C.): at least 120 hours

Molecule: Insulin: Zn-Insulin / insulin purchased from Sigma, loaded into 3.4KL5
- dimers or soluble aggregates ([2]; SEC-HPLC): no dimers or soluble aggregates were detected
- release achieved (complete release) ([2]; within 24 hours): 100%
- period over which insulin was released ([3]; 3.4KL5 particles (16 mg) in release-bag, PBS pH 7.4, 39° C.): 90 min
- insulin still being released ([3]; after 90 minutes, 3.4KL5 particles): 100 µg

Molecule: hGH: human growth hormone (MW 20 Kd)
- growth of the rats (hypophysectomized rats [4]): exhibited continued growth

B1: bovine somatotropin (protein, UniProt P01246 27-217, looked up)
Somatotropin: AFPAMSLSGLFANAVLRAQHLHQLAADTFKEFERTYIPEGQRYSIQNTQVAFCFSETIPAPTGKNEAQQKSDLELLRISLLLIQSWLGPLQFLSRVFTNSLVFGTSDRVYEKLKDLEEGILALMRELEDGTPRAGQILKQTYDKFDTNMRSDDALLKNYGLLSCFRKDLHKTETYLRVMKCRRFGEASCAF
notes: bovine somatotropin (MW 20 Kd)
- body weight after 11 days (hypophysectomized rats [5]): 151±4 grams
- exponent n characteristic of the mode of transport ([6]; both cylinders, n>0.5 = non-Fickian): 2
- incorporated drug released by the larger diameter cylinder (observed) ([6]; when the smaller diameter cylinder released 20%): 16%
- initial release on each of the first two days ([7]; ZnbST 20% loading in blend of 3.4KL5 and PEG-diacrylate): 12%
- period over which bST was released ([7]; ZnbST 20% loading in blend of 3.4KL5 and PEG-diacrylate MW 3,400, PBS pH 7.4, 39° C.): 14 days
- dimers or soluble aggregates in the release media ([7]; ZnbST 20% loading in blend of 3.4KL5 and PEG-diacrylate, SEC-HPLC): No detectable levels

B2: ZnbST: ZnbST protein (Monsanto/Protiva) loaded into macromer hydrogels (protein, UniProt P01246 27-217, looked up)
Somatotropin: AFPAMSLSGLFANAVLRAQHLHQLAADTFKEFERTYIPEGQRYSIQNTQVAFCFSETIPAPTGKNEAQQKSDLELLRISLLLIQSWLGPLQFLSRVFTNSLVFGTSDRVYEKLKDLEEGILALMRELEDGTPRAGQILKQTYDKFDTNMRSDDALLKNYGLLSCFRKDLHKTETYLRVMKCRRFGEASCAF
modifications: zinc complex
notes: ZnbST protein (Monsanto/Protiva) loaded into macromer hydrogels
- period over which ZnbST was released ([8]; 25% loading in 75:25 blend of 3.4KL5 and 3.4KC6): 17 days
- dimer or aggregate released ([8]; 75:25 blend of 3.4KL5 and 3.4KC6, SEC-HPLC): Very little
- incorporated ZnbST released ([8]; within 13 days of release, 75:25 blend of 3.4KL5 and 3.4KC6): 90%
- initial burst release [9]: no initial burst release was observed
- period over which ZnbST was released [9]: 20 days
- concentrations of dimers or soluble aggregates ([9]; SEC-HPLC): less than 2%
